Laboratory results from patent US20250270287A1 (KEROS THERAPEUTICS, published 2025).

Key:
[1] = biological target: T1, ActRIIB-A1 (SEQ ID NO: 120) chimera-Fc protein (Homo sapiens (Human), UniProt Q13705 28-134); experiment: SPR (Biacore 8K), Fc protein captured on anti-human IgG, ligand injected
T1 construct: Tested as chimera-Fc protein; not shown: linker (if any) and Fc domain
T1 sequence: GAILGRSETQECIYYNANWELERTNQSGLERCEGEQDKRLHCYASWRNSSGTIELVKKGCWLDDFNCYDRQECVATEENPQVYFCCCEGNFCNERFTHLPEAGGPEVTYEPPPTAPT
Method: (§1) The Cytiva Biacore 8k was used to measure the kinetics of the interactions between the ActRII- and chimera-Fc proteins and Activin A/Activin B/growth differentiation factor 8 (GDF-8)/GDF-11/BMP-9/BMP-10. Series S CM4 Sensor Chips were immobilized with anti-human capture antibody using the reagents and protocol in the Biacore Human Antibody Capture Kit (GE Life Sciences). Briefly, anti-human IgG was diluted to 25 μg/mL in immobilization buffer. The carboxylated surface of the sensor was activated by injecting a mixture of EDC and NHS. The anti-human IgG was injected into the activated sensor chip flow cells at 10 μL/min for a total of 7 minutes until the chip reached an immobilization level of 3000 resonance units (RU). Ethanolamine was injected to deactivate the sensor surfaces. The chip has 8 flow cells to be used for binding analysis, each with an in-line reference surface to subtract instrument noise and non-specific binding to the sensor chip. The ActRII- and chimera-Fc proteins were captured in their own flow cell to allow for a maximum analyte binding response of 20-30 RU. This was done by injecting 10-20 μL of the ActRII- and chimera-Fc proteins into the flow cells at a concentration of 2 μg/mL until 60-90 RU was captured. Ligand at a single concentration was injected at […] for 60 seconds and then allowed to dissociate under buffer flow for no less than 5 minutes. After the cycle completed, captured protein was stripped from the chip with an injection of 3 M magnesium chloride, the regeneration buffer provided with the Biacore Human Antibody Capture Kit. Each ligand was injected in a concentration series, including a buffer only 0 nM concentration to serve as a double reference for subtracting out instrument noise. The data were analyzed using the Biacore Insight Evaluation Software.

[2] = biological target: T2, ActRIIB (SEQ ID NO: 31) Fc protein (human, UniProt Q13705 20-134); experiment: as above
T2 construct: also called ActRII-Fc; wild-type extracellular ActRIIB; not shown: linker (if any) and Fc domain
T2 sequence: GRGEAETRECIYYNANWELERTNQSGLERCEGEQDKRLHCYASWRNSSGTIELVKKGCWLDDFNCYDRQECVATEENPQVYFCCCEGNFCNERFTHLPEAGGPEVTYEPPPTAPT
Method: as §1

B1: Activin B (ligand, UniProt P09529 293-407, looked up)
chain: GLECDGRTNLCCRQQFFIDFRLIGWNDWIIAPTGYYGNYCEGSCPAYLAGVPGSASSFHTAVVNQYRMRGLNPGTVNSCCIPTKLSTMSMLYFDDEYNIVKRDVPNMIVEECGCA
For B1, the Kd [1] was under 0.001 nM.

B2: BMP-9 (ligand, UniProt Q9UK05 320-429, looked up)
chain: SAGAGSHCQKTSLRVNFEDIGWDSWIIAPKEYEAYECKGGCFFPLADDVTPTKHAIVQTLVHLKFPTKVGKACCVPTKLSPISVLYKDDMGVPTLKYHYEGMSVAECGCR
notes: also called bone morphogenetic protein 9
B2 was tested, and the Kd [2] was 0.0358 nM and the Kd [1] was 0.0151 nM.

B3: GDF-11 (ligand, UniProt O95390 299-407, looked up)
chain: NLGLDCDEHSSESRCCRYPLTVDFEAFGWDWIIAPKRYKANYCSGQCEYMFMQKYPHTHLVQQANPRGSAGPCCTPTKMSPINMLYFNDKQQIIYGKIPGMVVDRCGCS
notes: also called growth and differentiation factor 11
B3 showed a Kd [2] of under 0.001 nM and a Kd [1] of under 0.001 nM.

B4: BMP-10 (ligand, UniProt O95393 317-424, looked up)
chain: NAKGNYCKRTPLYIDFKEIGWDSWIIAPPGYEAYECRGVCNYPLAEHLTPTKHAIIQALVHLKNSQKASKACCVPTKLEPISILYLDKGVVTYKFKYEGMAVSECGCR
Work on B4 yielded a Kd [2] of 0.0105 nM and a Kd [1] of 0.0175 nM.

B5: Activin A (ligand, UniProt P08476 311-426, looked up)
chain: GLECDGKVNICCKKQFFVSFKDIGWNDWIIAPSGYHANYCEGECPSHIAGTSGSSLSFHSTVINHYRMRGHSPFANLKSCCVPTKLRPMSMLYYDDGQNIIKKDIQNMIVEECGCS
B5 showed a Kd [1] of 0.0448 nM.
